According to the supplement of paper PMC10724198:
± gives the standard deviation of the averaged measurements.

Key:
Saccharomyces cerevisiae [1] = test: protein stability index of tFT-peptide fusion (C-terminal peptide) (PSI (0-1 scale)); higher = more stable (slower turnover)
Description: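 MPS profiling in S. cerevisiae of the tFT-X12 degron library: putative degron peptides plus stable controls, 12 aa, fused to the C-terminus of a sfGFP-mCherry timer. Cells are FACS-sorted into 8 mCherry/sfGFP bins and deep-sequenced. PSI runs from 0 (unstable) to 1 (stable). Backgrounds are wild type, das1Δ and doa10Δ at 30 °C, and wild type, das1Δ, cdc34-1 and cdc53-1 at 37 °C; 2-3 technical replicates each.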

Saccharomyces cerevisiae [2] = test: as above; conditions: genetic background: wild type; temperature: 30 C
[3] = genetic background: cdc34-1, temperature: 37 C
[4] = genetic background: cdc53-1, temperature: 37 C
[5] = genetic background: das1 deletion, temperature: 30 C
[6] = genetic background: das1 deletion, temperature: 37 C
[7] = genetic background: doa10 deletion, temperature: 30 C
[8] = genetic background: wild type, temperature: 30 C
[9] = genetic background: wild type, temperature: 37 C
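Note: PSI is a weighted mean of sequencing reads over stability bins, variants kept only with over 10 reads, mCherry proximal and sfGFP distal, peptide attached via GGGS linker.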

Sequence | protein stability index (Saccharomyces cerevisiae [1]; [3]) | protein stability index (Saccharomyces cerevisiae [1]; [4]) | protein stability index (Saccharomyces cerevisiae [1]; [5]) | protein stability index (Saccharomyces cerevisiae [1]; [6]) | protein stability index (Saccharomyces cerevisiae [1]; [7]) | protein stability index (Saccharomyces cerevisiae [1]; [8]) | protein stability index (Saccharomyces cerevisiae [1]; [9]) | protein stability index (Saccharomyces cerevisiae [2])
SPCLPRGVLFLA | 0.603 ± 0.055 | 0.7253 ± 0.004 | 0.667 ± 0.031 | 0.716 ± 0.005 | 0.2729 ± 0.0022 | 0.297 ± 0.022 | 0.437 ± 0.0099 | 0.367 ± 0.0063
SPCLSWTLVLVL | 0.275 ± 0.013 | 0.324 ± 0.0061 | 0.215 ± 0.026 | 0.407 ± 0.0077 | 0.195 ± 0.0034 | 0.203 ± 0.016 | 0.345 ± 0.0051 | 0.302 ± 0.037
SRLMLPLSPLVC | 0.41 ± 0.011 | 0.455 ± 0.0065 | 0.301 ± 0.045 | 0.5021 ± 0.0044 | 0.2762 ± 0.0016 | 0.313 ± 0.016 | 0.465 ± 0.0065 | 0.379 ± 0.045
SRPLYVMICTRV | 0.4376 ± 0.00075 | 0.522 ± 0.035 | 0.327 ± 0.024 | 0.558 ± 0.018 | 0.246 ± 0.0034 | 0.287 ± 0.018 | 0.503 ± 0.022 | 0.386 ± 0.0086
SRSYNSPSLYVC | 0.498 ± 0.061 | 0.6496 ± 0.0057 | 0.605 ± 0.029 | 0.712 ± 0.0089 | 0.0903 ± 0.0041 | 0.102 ± 0.016 | 0.109 ± 0.0097 | 0.147 ± 0.009
SRVCVLTGISCA | 0.568 ± 0.011 | 0.606 ± 0.016 | 0.416 ± 0.029 | 0.6023 ± 0.0038 | 0.387 ± 0.013 | 0.421 ± 0.011 | 0.572 ± 0.013 | 0.473 ± 0.018
SSLAKFQLISTY | 0.429 ± 0.0045 | 0.464 ± 0.011 | 0.316 ± 0.04 | 0.508 ± 0.049 | 0.267 ± 0.003 | 0.305 ± 0.016 | 0.46 ± 0.0088 | 0.394 ± 0.017
SVFSFCLCVGVV | 0.285 ± 0.0083 | 0.363 ± 0.076 | 0.266 ± 0.028 | 0.402 ± 0.011 | 0.213 ± 0.014 | 0.253 ± 0.033 | 0.358 ± 0.0064 | 0.294 ± 0.066
SVFWCFHVLFWS | 0.425 ± 0.039 | 0.4971 ± 0.0027 | 0.395 ± 0.025 | 0.5448 ± 0.0013 | 0.327 ± 0.011 | 0.345 ± 0.022 | 0.4926 ± 0.0049 | 0.39 ± 0.0011
SVLCLFSRLRSV | 0.625 ± 0.022 | 0.7308 ± 0.0022 | 0.638 ± 0.015 | 0.736 ± 0.0017 | 0.17 ± 0.0041 | 0.19 ± 0.032 | 0.383 ± 0.011 | 0.354 ± 0.069
SVPIAFYLLFFQ | 0.557 ± 0.0081 | 0.605 ± 0.027 | 0.458 ± 0.021 | 0.648 ± 0.013 | 0.434 ± 0.013 | 0.456 ± 0.016 | 0.575 ± 0.016 | 0.464 ± 0.021
SVSQTSILDSRL | 0.7109 ± 0.0043 | 0.756 ± 0.022 | 0.668 ± 0.012 | 0.74121 ± 0.00058 | 0.667 ± 0.018 | 0.675 ± 0.012 | 0.7313 ± 0.0043 | 0.71 ± 0.0074
SVVRCWVLLGVA | 0.121 ± 0.047 | 0.157 ± 0.028 | 0.198 ± 0.013 | 0.303 ± 0.0057 | 0.135 ± 0.0021 | 0.164 ± 0.026 | 0.2377 ± 0.0011 | 0.276 ± 0.024
SWELKWVYARVV | 0.374 ± 0.0097 | 0.5602 ± 0.0046 | 0.516 ± 0.02 | 0.674 ± 0.017 | 0.093 ± 0.0033 | 0.0851 ± 0.0075 | 0.0902 ± 0.0089 | 0.131 ± 0.005
SYALGNVVGGSL | 0.675 ± 0.045 | 0.75 ± 0.015 | 0.637 ± 0.018 | 0.748 ± 0.014 | 0.631 ± 0.025 | 0.645 ± 0.0065 | 0.721 ± 0.022 | 0.72 ± 0.013
TCPFTIHRLKVG | 0.63 ± 0.01 | 0.7483 ± 0.0035 | 0.617 ± 0.017 | 0.7458 ± 0.0033 | 0.118 ± 0.018 | 0.137 ± 0.028 | 0.218 ± 0.012 | 0.238 ± 0.077
TEHIIAFKASVN | 0.546 ± 0.0031 | 0.7284 ± 0.0037 | 0.626 ± 0.033 | 0.71 ± 0.01 | 0.0901 ± 0.025 | 0.104 ± 0.024 | 0.153 ± 0.028 | 0.214 ± 0.02
TFRVLFSVALLV | 0.172 ± 0.0042 | 0.216 ± 0.0069 | 0.259 ± 0.024 | 0.3436 ± 0.0022 | 0.1804 ± 0.00079 | 0.182 ± 0.021 | 0.2319 ± 0.0022 | 0.212 ± 0.086
TGRLFVSLRVWY | 0.321 ± 0.0046 | 0.375 ± 0.055 | 0.295 ± 0.035 | 0.467 ± 0.0072 | 0.302 ± 0.015 | 0.305 ± 0.006 | 0.442 ± 0.0058 | 0.437 ± 0.038
